Target: BSA (bovine serum albumin) (Bos taurus, UniProt P02769 P02769:25-607)
Assay: ELONA; plate assay on immobilized CaDNA-3-11T; no concentration-dependent signal with BSA; PBS-T, room temperature
Settings: structure-switching stem-loop

Chain of BSA (bovine serum albumin) (P02769 25-607, one chain of several): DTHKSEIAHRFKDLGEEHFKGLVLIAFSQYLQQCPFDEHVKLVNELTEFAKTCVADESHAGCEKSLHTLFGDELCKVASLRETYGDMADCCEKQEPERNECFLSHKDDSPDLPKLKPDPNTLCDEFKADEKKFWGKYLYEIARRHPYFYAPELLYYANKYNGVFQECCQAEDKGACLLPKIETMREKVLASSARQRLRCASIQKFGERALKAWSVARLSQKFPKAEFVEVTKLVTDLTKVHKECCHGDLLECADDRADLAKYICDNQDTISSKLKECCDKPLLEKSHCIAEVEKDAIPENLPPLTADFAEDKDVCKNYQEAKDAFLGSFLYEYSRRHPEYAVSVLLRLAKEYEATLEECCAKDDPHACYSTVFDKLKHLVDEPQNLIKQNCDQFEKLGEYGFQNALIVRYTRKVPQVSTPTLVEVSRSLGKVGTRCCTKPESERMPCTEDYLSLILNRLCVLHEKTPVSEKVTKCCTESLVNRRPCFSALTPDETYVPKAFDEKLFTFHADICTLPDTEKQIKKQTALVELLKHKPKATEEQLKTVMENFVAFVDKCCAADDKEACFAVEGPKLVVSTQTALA

B1: CaAp-3 (ssDNA)
DNA: GTTCGGCACTTGGGCCCTTTTCTGTGTCTTTCTGTGCCCTTAGATAGTATGTGCAATCA
binding result: no binding
